As a reminder, the EC50 is the concentration at which the effect is half-maximal. Read a low EC50 as greater potency.

Test [1] has as its target T1, human IL-1α (human, UniProt P01583 113-271).
T1 chain: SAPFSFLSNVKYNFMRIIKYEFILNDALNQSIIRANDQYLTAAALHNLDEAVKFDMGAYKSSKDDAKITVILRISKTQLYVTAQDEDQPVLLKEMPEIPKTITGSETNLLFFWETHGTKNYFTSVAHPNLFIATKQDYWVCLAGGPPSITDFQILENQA
In words: yeast surface display titration (FACS); unlabelled IL-1α.

The target in test [2] is Bio-IL-1a. The experiment in a line: yeast surface display titration (FACS); biotinylated IL-1α.

B1: ABT2-108-538x/ABT1-95-15 scFv on yeast surface (scFv, V domains shown)
VH: EVQLLESGGGLVQPGGSLRLSCAASGFTFADEGMMWVRQAPGKGLEWVSRITYSGKNTYYADSVKGRFTISRDNSKNTLYLQMNSLRAEDTAVYYCAKYTGRILGHHLFDYWGQGTLVTVSS
VL: DIQMTQSPSSLSASVGDRVTITCRASQPIVRNLRWYQQKPGKAPKLLIYSSSYLEPGVPSRFSGSGSGTDFTLTISSLQPEDFATYHCQQGYRWPVTFGQGTKVEIK
With B1, the response in test [1] was half-maximal at 0.664 nM (EC50).

B2: ABT2-108-538x/ABT1-95-15 scFv (scFv, V domains shown)
VH: EVQLLESGGGLVQPGGSLRLSCAASGFTFADEGMMWVRQAPGKGLEWVSRITYSGKNTYYADSVKGRFTISRDNSKNTLYLQMNSLRAEDTAVYYCAKYTGRILGHHLFDYWGQGTLVTVSS
VL: DIQMTQSPSSLSASVGDRVTITCRASQPIVRNLRWYQQKPGKAPKLLIYSSSYLEPGVPSRFSGSGSGTDFTLTISSLQPEDFATYHCQQGYRWPVTFGQGTKVEIK
Molecule B2 showed an EC50 in test [2] of 0.664 nM.

The values above are taken from US20090291081A1 (published 2009).
